Columns and labels:
[1] = target: hBMP-10 (human) (UniProt O95393); experiment: cell-based or functional assay
[2] = target: hBMP-9 (human) (UniProt Q9UK05); experiment: cell-based or functional assay
[3] = target: hBMP-10 (human) (UniProt O95393); experiment: SPR kinetics, captured CHO-cell-derived protein
[4] = target: hBMP-9 (human) (UniProt Q9UK05); experiment: SPR kinetics, captured CHO-cell-derived protein

Sequence of UniProt Q9UK05 (Q9UK05 320-429 limits assumed): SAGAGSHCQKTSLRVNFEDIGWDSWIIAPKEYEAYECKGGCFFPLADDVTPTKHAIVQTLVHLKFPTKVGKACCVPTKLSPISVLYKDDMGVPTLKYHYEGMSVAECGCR
Sequence of UniProt O95393 (O95393 317-424 limits assumed): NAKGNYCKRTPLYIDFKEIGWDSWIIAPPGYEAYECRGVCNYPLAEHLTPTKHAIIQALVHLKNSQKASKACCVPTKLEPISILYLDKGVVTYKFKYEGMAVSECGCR

hENG(26-586)-hFc, CHO-cell-derived, with N-terminally truncated Fc domain (Fc fusion)
IC50 (nM), BRE-luciferase reporter-gene assay in A204 cells [1]: 7.9 nM | IC50 (nM), BRE-luciferase reporter-gene assay in A204 cells [2]: 0.26 nM | Kd [3]: 0.49 nM | koff [3]: 0.011 s⁻¹ | Kd [4]: 0.033 nM | koff [4]: 0.0025 s⁻¹

Reference: patent US20150307588A1
